Assay results: paper PMC6821365

Assays:
Experiment in all cases: ITC
yedK R77A = molecular target: T1, yedK R77A (Escherichia coli (gene from BL21 …, UniProt P76318 2-222, R77A))
T1 sequence: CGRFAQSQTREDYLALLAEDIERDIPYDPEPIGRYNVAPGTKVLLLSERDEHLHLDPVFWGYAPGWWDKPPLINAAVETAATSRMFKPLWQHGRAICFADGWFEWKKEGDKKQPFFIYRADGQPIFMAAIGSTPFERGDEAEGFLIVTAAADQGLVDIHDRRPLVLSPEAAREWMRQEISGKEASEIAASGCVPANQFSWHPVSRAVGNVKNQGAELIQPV

yedK T149A = molecular target: T2, yedK T149A (Escherichia coli (gene from BL21 …, UniProt P76318 2-222, T149A))
T2 sequence: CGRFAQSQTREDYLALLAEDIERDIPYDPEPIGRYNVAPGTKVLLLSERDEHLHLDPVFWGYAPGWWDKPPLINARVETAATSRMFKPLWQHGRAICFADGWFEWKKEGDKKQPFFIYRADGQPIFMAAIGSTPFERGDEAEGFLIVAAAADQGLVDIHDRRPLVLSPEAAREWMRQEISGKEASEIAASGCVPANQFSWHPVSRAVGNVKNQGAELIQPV

yedK T80A = molecular target: T3, yedK T80A (Escherichia coli (gene from BL21 …, UniProt P76318 2-222, T80A))
T3 sequence: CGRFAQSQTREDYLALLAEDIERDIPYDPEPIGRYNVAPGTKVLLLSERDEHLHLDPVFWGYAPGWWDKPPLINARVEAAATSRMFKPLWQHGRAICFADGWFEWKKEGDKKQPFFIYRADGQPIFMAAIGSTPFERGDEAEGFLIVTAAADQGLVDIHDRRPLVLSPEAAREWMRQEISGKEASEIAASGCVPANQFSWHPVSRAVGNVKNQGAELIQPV

yedK S84A = molecular target: T4, yedK S84A (Escherichia coli (gene from BL21 …, UniProt P76318 2-222, S84A))
T4 sequence: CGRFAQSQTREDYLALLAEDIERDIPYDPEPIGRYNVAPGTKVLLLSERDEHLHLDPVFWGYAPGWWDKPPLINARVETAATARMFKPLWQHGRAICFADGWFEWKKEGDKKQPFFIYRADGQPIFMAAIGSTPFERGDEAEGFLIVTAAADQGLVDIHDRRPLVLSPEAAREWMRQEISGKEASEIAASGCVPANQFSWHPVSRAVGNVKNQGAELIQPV

yedK P40G = molecular target: T5, yedK P40G (Escherichia coli (gene from BL21 …, UniProt P76318 2-222, P40G))
T5 sequence: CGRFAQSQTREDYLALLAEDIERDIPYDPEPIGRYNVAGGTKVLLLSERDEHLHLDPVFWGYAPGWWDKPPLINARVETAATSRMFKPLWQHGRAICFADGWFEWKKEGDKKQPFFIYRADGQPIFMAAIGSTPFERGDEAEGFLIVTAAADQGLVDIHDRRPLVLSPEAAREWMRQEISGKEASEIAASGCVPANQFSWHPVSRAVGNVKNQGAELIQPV

yedK H160A = molecular target: T6, yedK H160A (Escherichia coli (gene from BL21 …, UniProt P76318 2-222, H160A))
T6 sequence: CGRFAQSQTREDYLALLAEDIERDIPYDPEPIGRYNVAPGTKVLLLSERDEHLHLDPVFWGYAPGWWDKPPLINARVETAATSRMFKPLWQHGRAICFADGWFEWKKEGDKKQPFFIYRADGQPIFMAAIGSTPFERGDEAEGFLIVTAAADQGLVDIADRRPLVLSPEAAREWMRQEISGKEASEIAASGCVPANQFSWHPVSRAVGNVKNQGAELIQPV

yedK K113A = molecular target: T7, yedK K113A (Escherichia coli (gene from BL21 …, UniProt P76318 2-222, K113A))
T7 sequence: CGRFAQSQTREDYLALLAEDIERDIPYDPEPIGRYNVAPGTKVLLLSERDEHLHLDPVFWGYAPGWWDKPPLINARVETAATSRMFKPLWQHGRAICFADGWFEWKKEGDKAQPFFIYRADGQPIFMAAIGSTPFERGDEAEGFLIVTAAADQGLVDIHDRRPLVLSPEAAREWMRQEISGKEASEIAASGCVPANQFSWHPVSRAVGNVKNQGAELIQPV

yedK W106A = molecular target: T8, yedK W106A (Escherichia coli (gene from BL21 …, UniProt P76318 2-222, W106A))
T8 sequence: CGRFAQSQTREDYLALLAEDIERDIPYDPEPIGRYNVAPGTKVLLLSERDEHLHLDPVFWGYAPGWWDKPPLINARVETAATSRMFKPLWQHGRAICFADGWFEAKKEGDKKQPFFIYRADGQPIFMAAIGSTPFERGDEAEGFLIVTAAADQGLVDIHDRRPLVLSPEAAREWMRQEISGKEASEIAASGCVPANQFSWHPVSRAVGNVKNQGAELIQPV

In the case of CGGTCGATTC (ssDNA) [ssDNA], the binding result (yedK R77A) is reported as “no binding”, the binding result (yedK T149A) is reported as “no binding” and the Kd (yedK T80A) is reported as 12.6 µM. It also gave a Kd (yedK S84A) of 10.8 µM, a Kd (yedK P40G) of 10.8 µM and a Kd (yedK H160A) of 1.4 µM. For the same binder, the Kd (yedK K113A) was 2.1 µM and the Kd (yedK W106A) was 18.7 µM.
